B1: Isovaleric Acid-L-T-H-[Dpa]-P-A-I-[Lys(Ahx_Palm)]-L-NH2 (peptide)
peptide: Isovaleryl-LTH[Dip]PAIK([Ahx-Palmitoyl])L-NH2
SMILES: CCCCCCCCCCCCCCCC(=O)NCCCCCC(=O)NCCCC[C@H](NC(=O)[C@@H](NC(=O)[C@H](C)NC(=O)[C@@H]1CCCN1C(=O)[C@@H](NC(=O)[C@H](Cc1c[nH]cn1)NC(=O)[C@@H](NC(=O)[C@H](CC(C)C)NC(=O)CC(C)C)[C@@H](C)O)C(c1ccccc1)c1ccccc1)[C@@H](C)CC)C(=O)N[C@@H](CC(C)C)C(N)=O
B2: Isovaleric Acid-E-T-H-[Dpa]-P-d[Lys(1PEG2_1PEG2_Ahx_C18_Diacid)]-[bhPhe]-NH2 (peptide)
peptide: XETHXPXX
modifications: not fully specified; N-term Isovaleric Acid; Dpa4; d[Lys(1PEG2_1PEG2_Ahx_C18_Diacid)]6; bhPhe7; C-term NH2
B3: Isovaleric Acid-E-T-H-[Dpa]-P-[Lys(1PEG2_1PEG2_IsoGlu_C18_Diacid)]-Propyl_Amine (peptide)
peptide: XETHXPXX
modifications: N-term Isovaleric Acid; Dpa4; Lys(1PEG2_1PEG2_IsoGlu_C18_Diacid)6; C-term Propyl_Amine
B4: Isovaleric Acid-L-T-H-[Dpa]-P-L-I-[Lys(Ahx_Palm)]-L-NH2 (peptide)
peptide: Isovaleryl-LTH[Dip]PLIK([Ahx-Palmitoyl])L-NH2
SMILES: CCCCCCCCCCCCCCCC(=O)NCCCCCC(=O)NCCCC[C@H](NC(=O)[C@@H](NC(=O)[C@H](CC(C)C)NC(=O)[C@@H]1CCCN1C(=O)[C@@H](NC(=O)[C@H](Cc1c[nH]cn1)NC(=O)[C@@H](NC(=O)[C@H](CC(C)C)NC(=O)CC(C)C)[C@@H](C)O)C(c1ccccc1)c1ccccc1)[C@@H](C)CC)C(=O)N[C@@H](CC(C)C)C(N)=O
B5: Isovaleric Acid-E-T-H-[Dpa]-P-[Lys(1PEG2_1PEG2_IsoGlu_C18_Diacid)]-[bhPhe]-NH2 (peptide)
peptide: XETHXPXX
modifications: N-term Isovaleric Acid; Dpa4; Lys(1PEG2_1PEG2_IsoGlu_C18_Diacid)6; bhPhe7; C-term NH2
B6: Isovaleric Acid-E-T-H-[Dpa]-P-[Lys(1PEG2_1PEG2_IsoGlu_C18_Diacid)]-N_Butyl_Phe (peptide)
peptide: XETHXPXX
modifications: N-term Isovaleric Acid; Dpa4; Lys(1PEG2_1PEG2_IsoGlu_C18_Diacid)6; C-term N_Butyl_Phe
B7: Isovaleric Acid-[Lys(Ahx_Palm)]-T-H-[Dpa]-P-A-I-[(D)Lys]-[bhPhe]-NH2; 1 (peptide)
peptide: Isovaleryl-K([Ahx-Palmitoyl])TH[Dip]PAI[dK][β3hF]-NH2
SMILES: CCCCCCCCCCCCCCCC(=O)NCCCCCC(=O)NCCCC[C@H](NC(=O)CC(C)C)C(=O)N[C@H](C(=O)N[C@@H](Cc1c[nH]cn1)C(=O)N[C@H](C(=O)N1CCC[C@H]1C(=O)N[C@@H](C)C(=O)N[C@H](C(=O)N[C@H](CCCCN)C(=O)N[C@H](CC(N)=O)Cc1ccccc1)[C@@H](C)CC)C(c1ccccc1)c1ccccc1)[C@@H](C)O
B8: Isovaleric Acid-L-T-H-[Dpa]-P-A-I-[Lys(Ahx_Palm)]-[bhPhe]-NH2 (peptide)
peptide: Isovaleryl-LTH[Dip]PAIK([Ahx-Palmitoyl])[β3hF]-NH2
SMILES: CCCCCCCCCCCCCCCC(=O)NCCCCCC(=O)NCCCC[C@H](NC(=O)[C@@H](NC(=O)[C@H](C)NC(=O)[C@@H]1CCCN1C(=O)[C@@H](NC(=O)[C@H](Cc1c[nH]cn1)NC(=O)[C@@H](NC(=O)[C@H](CC(C)C)NC(=O)CC(C)C)[C@@H](C)O)C(c1ccccc1)c1ccccc1)[C@@H](C)CC)C(=O)N[C@H](CC(N)=O)Cc1ccccc1
B9: Isovaleric Acid-E-T-H-[Dpa]-P-d[Lys(1PEG2_1PEG2_IsoGlu_C18_Diacid)]-[bhPhe]-NH2 (peptide)
peptide: XETHXPXX
modifications: N-term Isovaleric Acid; Dpa4; d[Lys(1PEG2_1PEG2_IsoGlu_C18_Diacid)]6; bhPhe7; C-term NH2
B10: Isovaleric Acid-E-T-H-[Dpa]-P-[Lys(1PEG2_1PEG2_IsoGlu_C18_Diacid)]-N_Ethyl_Phe (peptide)
peptide: XETHXPXX
modifications: N-term Isovaleric Acid; Dpa4; Lys(1PEG2_1PEG2_IsoGlu_C18_Diacid)6; C-term N_Ethyl_Phe
B11: Isovaleric Acid-L-T-H-[Dpa]-[Lys(1PEG2_1PEG2_IsoGlu_C18_Diacid)]-Propyl_Amine (peptide)
peptide: Isovaleryl-LTH[Dip]K([AEEA-AEEA-γGlu-C18 diacid])-NHPr
SMILES: CCCNC(=O)[C@H](CCCCNC(=O)COCCOCCNC(=O)COCCOCCNC(=O)CC[C@H](NC(=O)CCCCCCCCCCCCCCCCC(=O)O)C(=O)O)NC(=O)[C@@H](NC(=O)[C@H](Cc1c[nH]cn1)NC(=O)[C@@H](NC(=O)[C@H](CC(C)C)NC(=O)CC(C)C)[C@@H](C)O)C(c1ccccc1)c1ccccc1
B12: Isovaleric Acid-L-T-H-[Dpa]-P-L-I-[Lys(Ahx_Palm)]-[bhPhe]-NH2 (peptide)
peptide: Isovaleryl-LTH[Dip]PLIK([Ahx-Palmitoyl])[β3hF]-NH2
SMILES: CCCCCCCCCCCCCCCC(=O)NCCCCCC(=O)NCCCC[C@H](NC(=O)[C@@H](NC(=O)[C@H](CC(C)C)NC(=O)[C@@H]1CCCN1C(=O)[C@@H](NC(=O)[C@H](Cc1c[nH]cn1)NC(=O)[C@@H](NC(=O)[C@H](CC(C)C)NC(=O)CC(C)C)[C@@H](C)O)C(c1ccccc1)c1ccccc1)[C@@H](C)CC)C(=O)N[C@H](CC(N)=O)Cc1ccccc1
B13: Isovaleric Acid-L-T-H-[Dpa]-P-[Lys(1PEG2_1PEG2_IsoGlu_C18_Diacid)]-[bhPhe]-NH2 (peptide)
peptide: Isovaleryl-LTH[Dip]PK([AEEA-AEEA-γGlu-C18 diacid])[β3hF]-NH2
SMILES: CC(C)CC(=O)N[C@@H](CC(C)C)C(=O)N[C@H](C(=O)N[C@@H](Cc1c[nH]cn1)C(=O)N[C@H](C(=O)N1CCC[C@H]1C(=O)N[C@@H](CCCCNC(=O)COCCOCCNC(=O)COCCOCCNC(=O)CC[C@H](NC(=O)CCCCCCCCCCCCCCCCC(=O)O)C(=O)O)C(=O)N[C@H](CC(N)=O)Cc1ccccc1)C(c1ccccc1)c1ccccc1)[C@@H](C)O
B14: Isovaleric Acid-E-T-H-[Dpa]-P-L-I-[Lys(Ahx_Palm)]-L-NH2 (peptide)
peptide: Isovaleryl-ETH[Dip]PLIK([Ahx-Palmitoyl])L-NH2
SMILES: CCCCCCCCCCCCCCCC(=O)NCCCCCC(=O)NCCCC[C@H](NC(=O)[C@@H](NC(=O)[C@H](CC(C)C)NC(=O)[C@@H]1CCCN1C(=O)[C@@H](NC(=O)[C@H](Cc1c[nH]cn1)NC(=O)[C@@H](NC(=O)[C@H](CCC(=O)O)NC(=O)CC(C)C)[C@@H](C)O)C(c1ccccc1)c1ccccc1)[C@@H](C)CC)C(=O)N[C@@H](CC(C)C)C(N)=O
B15: Isovaleric Acid-[Lys(Ahx_Palm)]-T-H-[Dpa]-P-A-I-[(D)Lys]-[bhPhe]-NH2; 2 (peptide)
peptide: Isovaleryl-K([Ahx-Palmitoyl])TH[Dip]PAI[dK][β3hF]-NH2
SMILES: CCCCCCCCCCCCCCCC(=O)NCCCCCC(=O)NCCCC[C@H](NC(=O)CC(C)C)C(=O)N[C@H](C(=O)N[C@@H](Cc1c[nH]cn1)C(=O)N[C@H](C(=O)N1CCC[C@H]1C(=O)N[C@@H](C)C(=O)N[C@H](C(=O)N[C@H](CCCCN)C(=O)N[C@H](CC(N)=O)Cc1ccccc1)[C@@H](C)CC)C(c1ccccc1)c1ccccc1)[C@@H](C)O
B16: Isovaleric Acid-E-T-H-[Dpa]-P-[Lys(1PEG2_1PEG2_Ahx_C18_Diacid)]-[bhPhe]-NH2 (peptide)
peptide: XETHXPXX
modifications: N-term Isovaleric Acid; Dpa4; Lys(1PEG2_1PEG2_Ahx_C18_Diacid)6; bhPhe7; C-term NH2
B17: Isovaleric Acid-E-T-H-[Dpa]-P-A-I-[Lys(Ahx_Palm)]-L-NH2 (peptide)
peptide: Isovaleryl-ETH[Dip]PAIK([Ahx-Palmitoyl])L-NH2
SMILES: CCCCCCCCCCCCCCCC(=O)NCCCCCC(=O)NCCCC[C@H](NC(=O)[C@@H](NC(=O)[C@H](C)NC(=O)[C@@H]1CCCN1C(=O)[C@@H](NC(=O)[C@H](Cc1c[nH]cn1)NC(=O)[C@@H](NC(=O)[C@H](CCC(=O)O)NC(=O)CC(C)C)[C@@H](C)O)C(c1ccccc1)c1ccccc1)[C@@H](C)CC)C(=O)N[C@@H](CC(C)C)C(N)=O
B18: Isovaleric Acid-L-T-H-[Dpa]-P-d[Lys(1PEG2_1PEG2_IsoGlu_C18_Diacid)]-[bhPhe]-NH2 (peptide)
peptide: Isovaleryl-LTH[Dip]P[dK]([AEEA-AEEA-γGlu-C18 diacid])[β3hF]-NH2
SMILES: CC(C)CC(=O)N[C@@H](CC(C)C)C(=O)N[C@H](C(=O)N[C@@H](Cc1c[nH]cn1)C(=O)N[C@H](C(=O)N1CCC[C@H]1C(=O)N[C@H](CCCCNC(=O)COCCOCCNC(=O)COCCOCCNC(=O)CC[C@H](NC(=O)CCCCCCCCCCCCCCCCC(=O)O)C(=O)O)C(=O)N[C@H](CC(N)=O)Cc1ccccc1)C(c1ccccc1)c1ccccc1)[C@@H](C)O

From patent publication US20240066131A1 (Protagonist Therapeutics, Inc., priority 2020, published 2024) come the findings set out here.

Starred links: 1 amine or outer side, 2 acyl side, 3 side chain; linkers in the order of their positions; H or OH if unused. Non-standard residues stand in square brackets, D forms with d. Groups on a side chain read outwards from the residue. No end group written: not given here. *: point of attachment. N_Butyl_Phe = CCCCN([C@@H](Cc1ccccc1)C(=O)[*:2])[*:1]; C18 diacid = O=C(O)CCCCCCCCCCCCCCCCC(=O)*; Dip = N[C@H](C(=O)O)C(c1ccccc1)c1ccccc1; γGlu = O=C(O)[C@H](CCC(=O)[*:2])N[*:1]; Palmitoyl = CCCCCCCCCCCCCCCC(=O)*; β3hF = N[C@H](CC(=O)O)Cc1ccccc1; Isovaleryl = CC(C)CC(=O)*; AEEA = NCCOCCOCC(=O)O; Ahx = NCCCCCC(=O)O; NHPr = CCCN*

The experiment concerns the target T1, human ferroportin (SLC40A1) fused in frame with GFP, stably expressed in HEK293 cells (human, UniProt Q9NP59 1-571).
T1 sequence (looked up): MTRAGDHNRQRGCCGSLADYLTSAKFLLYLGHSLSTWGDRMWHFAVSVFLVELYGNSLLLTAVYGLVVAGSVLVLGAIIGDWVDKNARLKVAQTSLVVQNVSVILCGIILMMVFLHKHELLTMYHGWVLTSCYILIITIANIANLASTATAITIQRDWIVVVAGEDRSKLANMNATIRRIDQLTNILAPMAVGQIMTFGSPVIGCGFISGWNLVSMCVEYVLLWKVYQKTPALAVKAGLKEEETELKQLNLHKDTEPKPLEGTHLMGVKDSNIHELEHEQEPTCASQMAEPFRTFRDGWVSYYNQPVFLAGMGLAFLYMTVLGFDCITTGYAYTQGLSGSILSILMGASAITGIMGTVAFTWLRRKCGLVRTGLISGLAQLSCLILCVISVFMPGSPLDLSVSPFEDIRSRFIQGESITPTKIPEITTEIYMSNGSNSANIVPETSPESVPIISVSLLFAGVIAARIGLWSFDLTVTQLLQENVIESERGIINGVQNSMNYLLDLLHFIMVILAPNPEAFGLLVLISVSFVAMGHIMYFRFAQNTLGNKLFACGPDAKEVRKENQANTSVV
The experiment is described as follows: cell-based or functional assay.
B1: the “FPN IC50” value amounted to 169 nM.
B2: the “FPN IC50” value was 86.8 nM.
Under B3 stands 470 nM; under B4, 342 nM.
For Isovaleryl-LTH[Dip]K([AEEA-AEEA-γGlu-C18 diacid])[N_Butyl_Phe] [Isovaleric Acid-L-T-H-[Dpa]-[Lys(1PEG2_1PEG2_IsoGlu_C18_Diacid)]-N_Butyl Phe], the “FPN IC50” value was more than 3000 nM.
Under B5 stands 1690 nM; under B6, 448 nM.
To B7 belongs 598 nM.
Regarding B8, the “FPN IC50” value was determined as 1580 nM.
To B9 belongs 1490 nM; to Isovaleryl-LTH[Dip]PK([Ahx-Palmitoyl])[N_Ethyl_Phe] [Isovaleric Acid-L-T-H-[Dpa]-P-[Lys(Ahx_Palm)]-N_Ethyl_Phe], 18.3 nM; to Isovaleryl-LTH[Dip]K([AEEA-AEEA-γGlu-C18 diacid])[N_Ethyl_Phe] [Isovaleric Acid-L-T-H-[Dpa]-[Lys(1PEG2_1PEG2 IsoGlu_C18_Diacid)]-N_Ethyl Phe], more than 3000 nM.
To Isovaleryl-LTH[Dip]PK([Ahx-Palmitoyl])-NHPr [Isovaleric Acid-L-T-H-[Dpa]-P-[Lys(Ahx_Palm)]-Propyl_Amine] belongs 87.3 nM; to B10, 408 nM; to B11, more than 3000 nM.
To B12 belongs 1270 nM; to Isovaleryl-LTH[Dip]PK([Ahx-Palmitoyl])[N_Butyl_Phe] [Isovaleric Acid-L-T-H-[Dpa]-P-[Lys(Ahx_Palm)]-N_Butyl_Phe], 74 nM.
As for B13, the “FPN IC50” value came to 482 nM.
To Isovaleryl-LTH[Dip]K([AEEA-AEEA-γGlu-C18 diacid])-Benzyl_Amine [Isovaleric Acid-L-T-H-[Dpa]-[Lys(1PEG2_1PEG2_IsoGlu_C18_Diacid)]-Benzyl_Amine] belongs more than 3000 nM.
Under B14 stands 37.4 nM; under B15, 654 nM; under B16, 367 nM.
To B17 belongs 82 nM; to B18, 394 nM.
